Test results: the supplement of paper PMC11208486

How the values were obtained:
[1] = melting temperature (ThermoFMN); higher = more thermostable
Description: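 Purified His-tagged ene reductases (1 mg/ml) in 50 mM sodium phosphate pH 7.4 with 0-30% (v/v) organic co-solvent. Melting temperature was measured by the ThermoFMN assay (FMN fluorescence, 20-90 °C at 1 °C/min, inflection point, triplicate). Specific initial activity was measured with 10 mM cyclohex-2-enone and 0.2 mM NAD(P)H (NADH for LacER) as A340 depletion, at room temperature (DMSO, 2-propanol, n-propanol) or 25 °C (EtOH, MeOH), in triplicate. The TsOYE Tm is above the 90 °C measurement range.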

[2] = specific initial activity, cyclohex-2-enone reduction (U mg-1); higher = more active; conditions: co-solvent: ethanol
Description: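 Specific initial activity of purified ene reductases with 10 mM cyclohex-2-enone and 0.2 mM NAD(P)H in 50 mM sodium phosphate pH 7.4 with 0-45% (v/v) ethanol or methanol, at set reaction temperatures of 25-45 °C. NAD(P)H depletion was followed at 340 nm for 480 s, in triplicate.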

MNPKYKPLFEPFTFKSGVTINNRIAVAPMTHYASNEDGTISEAELDYIIPRSKEMGMVITACANVTPDGKAFPGQPAIHDDSNIPGLKKLAQAIQAQGAKAVVQIHHGGIECPSELVPQQDVVGPSDVFDNGKQIARALTEEEVENIVKAFGEATRRAIEAGFDGVEIHGANGYLIQQFYSPKTNQRTDRWGGSDEKRLAFPLAIVDEVKKAASEHAKGAFLVGYRLSPEEPETPGLTMTETYTLVDALGDKELDYLHISLMDVNSKARRGADPTRTRMDLLNERVGNKVPLIAVGSIHSADDALAVIENGIPLVAMGREILVDPNWTVKVKEGREKQIETVIKGTDKEKYHLPEPLWQAIVNTQGWVPYKD
melting temperature [°C], [1]
Conditions	co-solvent concentration (% v/v): 0	co-solvent concentration (% v/v): 5	co-solvent concentration (% v/v): 10	co-solvent concentration (% v/v): 15	co-solvent concentration (% v/v): 20	co-solvent concentration (% v/v): 25	co-solvent concentration (% v/v): 30
co-solvent: 2-propanol	54	46	39.3	39.3	33.7	32.7	33.7
co-solvent: dimethyl sulfoxide	54	51.7	51	50	50	49.7	49.7
co-solvent: ethanol	54	51	45.3	42	38.7	38.3	36.3
co-solvent: methanol	54	52.3	49.7	43.7	44.3	42.3	40
co-solvent: n-propanol	54	43.7	33	31.3	30.3	29.3	30.3

[2]
Conditions	specific initial activity
co-solvent concentration (% v/v): 0, reaction temperature 25 °C	0.8
co-solvent concentration (% v/v): 0, reaction temperature 30 °C	0.56
co-solvent concentration (% v/v): 0, reaction temperature 35 °C	0.24
co-solvent concentration (% v/v): 0, reaction temperature 40 °C	0.15
co-solvent concentration (% v/v): 5, reaction temperature 25 °C	0.77
co-solvent concentration (% v/v): 5, reaction temperature 30 °C	0.66
co-solvent concentration (% v/v): 5, reaction temperature 35 °C	0.27
co-solvent concentration (% v/v): 5, reaction temperature 40 °C	0.05
co-solvent concentration (% v/v): 10, reaction temperature 25 °C	0.95
co-solvent concentration (% v/v): 10, reaction temperature 30 °C	0.67
co-solvent concentration (% v/v): 10, reaction temperature 35 °C	0.28
co-solvent concentration (% v/v): 10, reaction temperature 40 °C	0.04
co-solvent concentration (% v/v): 15, reaction temperature 25 °C	0.96
co-solvent concentration (% v/v): 15, reaction temperature 30 °C	0.85
co-solvent concentration (% v/v): 15, reaction temperature 35 °C	0.21
co-solvent concentration (% v/v): 15, reaction temperature 40 °C	0.03
co-solvent concentration (% v/v): 20, reaction temperature 25 °C	0.99
co-solvent concentration (% v/v): 20, reaction temperature 30 °C	0.75
co-solvent concentration (% v/v): 20, reaction temperature 35 °C	0.17
co-solvent concentration (% v/v): 20, reaction temperature 40 °C	0.03
co-solvent concentration (% v/v): 25, reaction temperature 25 °C	0.88
co-solvent concentration (% v/v): 25, reaction temperature 30 °C	0.63
